In article PMC10397247:
Values belong to the binder of their own block, whether it stands above or below them.

Key:
Assay in all cases: two-hybrid library CCmax;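 also: natural log of median RNA to DNA barcode read ratio; higher means stronger binding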
[1] = molecular target: T1, APC3265-AA; settings: mean of both orientations
T1 chain: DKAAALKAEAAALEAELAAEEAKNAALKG

[2] = molecular target: T2, APC3323-AA; settings: mean of both orientations
T2 chain: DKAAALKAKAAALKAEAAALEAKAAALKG

[3] = molecular target: T3, APC5009-AA; settings: mean of both orientations
T3 chain: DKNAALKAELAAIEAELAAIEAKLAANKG

[4] = molecular target: T4, APC3354-AA; settings: mean of both orientations
T4 chain: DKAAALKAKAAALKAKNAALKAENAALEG

[5] = molecular target: T5, APC2724-AA
T5 chain: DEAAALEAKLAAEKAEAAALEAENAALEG

[6] = molecular target: T6, APC6088-AA; settings: mean of both orientations
T6 chain: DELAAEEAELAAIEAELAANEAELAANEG

[7] = molecular target: T7, APC4100-AA
T7 chain: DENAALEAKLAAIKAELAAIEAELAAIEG

[8] = molecular target: T8, APC9806-AA; settings: mean of both orientations
T8 chain: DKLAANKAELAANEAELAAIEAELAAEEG

[9] = molecular target: T9, APC4336-AA; settings: mean of both orientations
T9 chain: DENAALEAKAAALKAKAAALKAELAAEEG

[10] = molecular target: T10, APC7524-AA; settings: mean of both orientations
T10 chain: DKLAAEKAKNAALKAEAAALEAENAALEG

[11] = molecular target: T11, APC9182-AA; settings: mean of both orientations
T11 chain: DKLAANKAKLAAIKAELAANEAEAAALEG

[12] = molecular target: T12, APC542-AA; settings: mean of both orientations
T12 chain: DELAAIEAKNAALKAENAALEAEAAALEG

[13] = molecular target: T13, APC9291-AA; settings: mean of both orientations
T13 chain: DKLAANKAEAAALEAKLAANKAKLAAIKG

[14] = molecular target: T14, APC5531-AA; settings: mean of both orientations
T14 chain: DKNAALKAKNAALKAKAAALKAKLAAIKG

[15] = molecular target: T15, APC2981-AA; settings: mean of both orientations
T15 chain: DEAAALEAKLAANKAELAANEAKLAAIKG

[16] = molecular target: T16, APC9141-AA; settings: mean of both orientations
T16 chain: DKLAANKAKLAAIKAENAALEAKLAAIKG

[17] = molecular target: T17, APC2811-AA; settings: mean of both orientations
T17 chain: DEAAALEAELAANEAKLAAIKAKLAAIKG

[18] = molecular target: T18, APC8401-AA; settings: mean of both orientations
T18 chain: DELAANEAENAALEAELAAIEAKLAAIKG

[19] = molecular target: T19, APC3881-AA; settings: mean of both orientations
T19 chain: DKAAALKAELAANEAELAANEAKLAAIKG

[20] = molecular target: T20, APC8516-AA; settings: mean of both orientations
T20 chain: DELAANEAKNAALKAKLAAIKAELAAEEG

[21] = molecular target: T21, 4H2883-AA; settings: mean of both orientations
T21 chain: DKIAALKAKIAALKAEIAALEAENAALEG

[22] = molecular target: T22, 4H3343-AA; settings: mean of both orientations
T22 chain: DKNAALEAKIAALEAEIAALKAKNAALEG

[23] = molecular target: T23, 4H2466-AA; settings: mean of both orientations
T23 chain: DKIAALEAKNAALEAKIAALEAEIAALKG

[24] = molecular target: T24, 4H2190-AA; settings: mean of both orientations
T24 chain: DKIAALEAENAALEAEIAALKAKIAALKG

[25] = molecular target: T25, 4H3112-AA; settings: mean of both orientations
T25 chain: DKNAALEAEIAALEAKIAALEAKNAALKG

[26] = molecular target: T26, 4H3844-AA; settings: mean of both orientations
T26 chain: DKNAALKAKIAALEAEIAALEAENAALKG

[27] = molecular target: T27, 4H906-AA; settings: mean of both orientations
T27 chain: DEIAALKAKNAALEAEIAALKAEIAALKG

[28] = molecular target: T28, 4H717-AA; settings: mean of both orientations
T28 chain: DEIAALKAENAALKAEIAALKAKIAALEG

[29] = molecular target: T29, 4H993-AA; settings: mean of both orientations
T29 chain: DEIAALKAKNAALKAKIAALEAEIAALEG

[30] = molecular target: T30, 4H429-AA; settings: mean of both orientations
T30 chain: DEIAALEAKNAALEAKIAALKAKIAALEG

[31] = molecular target: T31, 4H335-AA; settings: mean of both orientations
T31 chain: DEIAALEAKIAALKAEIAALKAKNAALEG

[32] = molecular target: T32, 4H342-AA; settings: mean of both orientations
T32 chain: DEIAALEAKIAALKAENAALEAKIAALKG

[33] = molecular target: T33, 4H3427-AA; settings: mean of both orientations
T33 chain: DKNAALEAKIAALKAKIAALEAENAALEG

[34] = molecular target: T34, 4H2354-AA; settings: mean of both orientations
T34 chain: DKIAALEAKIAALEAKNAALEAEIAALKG

[35] = molecular target: T35, 4H2754-AA; settings: mean of both orientations
T35 chain: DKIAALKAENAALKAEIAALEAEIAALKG

[36] = molecular target: T36, 4H678-AA; settings: mean of both orientations
T36 chain: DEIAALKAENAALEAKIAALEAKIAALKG

[37] = molecular target: T37, 4H780-AA; settings: mean of both orientations
T37 chain: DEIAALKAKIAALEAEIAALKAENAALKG

[38] = molecular target: T38, 4H234-AA; settings: mean of both orientations
T38 chain: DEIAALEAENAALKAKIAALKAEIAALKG

[39] = molecular target: T39, 4H3606-AA; settings: mean of both orientations
T39 chain: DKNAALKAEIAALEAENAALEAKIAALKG

[40] = molecular target: T40, 4H3921-AA; settings: mean of both orientations
T40 chain: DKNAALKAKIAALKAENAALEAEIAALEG

[41] = molecular target: T41, 4H566-AA; settings: mean of both orientations
T41 chain: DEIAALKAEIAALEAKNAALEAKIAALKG

[42] = molecular target: T42, 4H2729-AA; settings: mean of both orientations
T42 chain: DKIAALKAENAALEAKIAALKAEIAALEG

[43] = molecular target: T43, 4H2505-AA; settings: mean of both orientations
T43 chain: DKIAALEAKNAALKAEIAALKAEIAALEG

[44] = molecular target: T44, 4H2837-AA; settings: mean of both orientations
T44 chain: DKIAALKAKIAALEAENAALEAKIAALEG

[45] = molecular target: T45, 4H794-AA; settings: mean of both orientations
T45 chain: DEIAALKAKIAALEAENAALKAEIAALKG

[46] = molecular target: T46, 4H3627-AA; settings: mean of both orientations
T46 chain: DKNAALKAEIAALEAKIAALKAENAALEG

[47] = molecular target: T47, 4H454-AA; settings: mean of both orientations
T47 chain: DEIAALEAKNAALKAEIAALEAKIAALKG

[48] = molecular target: T48, 4H1867-AA
T48 chain: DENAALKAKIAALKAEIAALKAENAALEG

[49] = molecular target: T49, 4H2949-AA; settings: mean of both orientations
T49 chain: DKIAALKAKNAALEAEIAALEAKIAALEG

[50] = molecular target: T50, 4H317-AA; settings: mean of both orientations
T50 chain: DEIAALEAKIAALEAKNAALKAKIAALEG

[51] = molecular target: T51, 4H2617-AA; settings: mean of both orientations
T51 chain: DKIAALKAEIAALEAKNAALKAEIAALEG

[52] = molecular target: T52, 4H2944-AA; settings: mean of both orientations
T52 chain: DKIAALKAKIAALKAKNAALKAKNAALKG

[53] = molecular target: T53, 4H2165-AA; settings: mean of both orientations
T53 chain: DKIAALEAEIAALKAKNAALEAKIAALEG

[54] = molecular target: T54, 4H2151-AA; settings: mean of both orientations
T54 chain: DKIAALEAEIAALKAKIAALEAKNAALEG

[55] = molecular target: T55, 4H2575-AA; settings: mean of both orientations
T55 chain: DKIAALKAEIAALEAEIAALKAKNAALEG

[56] = molecular target: T56, 4H881-AA; settings: mean of both orientations
T56 chain: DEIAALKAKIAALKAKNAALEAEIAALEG

[57] = molecular target: T57, 4H2393-AA; settings: mean of both orientations
T57 chain: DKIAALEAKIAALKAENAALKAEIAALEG

[58] = molecular target: T58, 4H2078-AA; settings: mean of both orientations
T58 chain: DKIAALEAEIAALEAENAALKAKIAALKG

[59] = molecular target: T59, 4H48-AA; settings: mean of both orientations
T59 chain: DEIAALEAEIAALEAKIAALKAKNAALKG

[60] = molecular target: T60, 4H2642-AA
T60 chain: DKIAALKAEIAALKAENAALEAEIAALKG

[61] = molecular target: T61, 4H3655-AA; settings: mean of both orientations
T61 chain: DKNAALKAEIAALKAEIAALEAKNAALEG

[62] = molecular target: T62, 4H2277-AA; settings: mean of both orientations
T62 chain: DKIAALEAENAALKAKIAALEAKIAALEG

[63] = molecular target: T63, 4H605-AA; settings: mean of both orientations
T63 chain: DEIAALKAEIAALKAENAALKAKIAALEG

interaction score [1]: -1.62 | interaction score [2]: -1.8 | interaction score [3]: -1.67 | interaction score [4]: -1.48 | interaction score [5]: -1.55 | interaction score [6]: -1.76 | interaction score [7]: -1.68 | interaction score [8]: -1.79 | interaction score [9]: -2.23 | interaction score [10]: -1.54 | interaction score [11]: -1.95 | interaction score [12]: -1.75 | interaction score [13]: -1.76 | interaction score [14]: -1.53 | interaction score [15]: -1.68 | interaction score [16]: -3.52 | interaction score [17]: -1.76 | interaction score [18]: -1.54 | interaction score [19]: -2.62 | interaction score [20]: -1.9
Binder: DEAAALEAKLAAEKAEAAALEAENAALEG [APC2724-AA]

interaction score [21]: -0.898 | interaction score [22]: 0.12 | interaction score [23]: -1.6 | interaction score [24]: -0.428 | interaction score [25]: 0.579 | interaction score [26]: 1.01 | interaction score [27]: -1.71 | interaction score [28]: -1.28 | interaction score [29]: -1.05 | interaction score [30]: -1.51 | interaction score [31]: -0.988 | interaction score [32]: -0.881 | interaction score [33]: -1.26 | interaction score [34]: -1.35 | interaction score [35]: 1.11 | interaction score [36]: -1.03 | interaction score [37]: -0.525 | interaction score [38]: -0.943 | interaction score [39]: -1.11 | interaction score [40]: -1.88 | interaction score [41]: -1.59 | interaction score [42]: -1.46 | interaction score [43]: -1.62 | interaction score [44]: -1.19 | interaction score [45]: -1.4 | interaction score [46]: 0.353 | interaction score [47]: -0.172 | interaction score [48]: 0.169 | interaction score [49]: -1.06 | interaction score [50]: -1.01 | interaction score [51]: -1.4 | interaction score [52]: -0.512 | interaction score [53]: -1.77 | interaction score [54]: -1.27 | interaction score [55]: 1.63 | interaction score [56]: -1.8 | interaction score [57]: -1.58 | interaction score [58]: -0.776 | interaction score [59]: 1.5 | interaction score [60]: -2.13 | interaction score [61]: -0.0304 | interaction score [62]: -1.23 | interaction score [63]: -1.5
Binder: DENAALKAKIAALKAEIAALKAENAALEG [4H1867-AA]
